Results from patent US6713294B1, “DNA glycosylases and their use” (priority 1996, dated 2004).
Substitutions are numbered along the chain they refer to.

Key:
[1] = test system: ^3H-uracil released in uracil-DNA glycosylase assays; experiment: Uracil-DNA glycosylase activity after coupled transcription/translation in rabbit reticulocyte lysates; type: biochemical
Experimental: In vitro transcription/translation was performed with the TNT® transcription/translation system with […] as recommended by the manufacturer, using 200 ng of the expression constructs per 10 μl reaction volume. The mouse UNG1-pBluescript® construct was transcribed from the T3 promoter in the pBluescript® vector. The insert of mouse UNG2-pBluescript® was amplified by the polymerase chain reaction using Dynazyme® PCR kit, ligated into the pGEM-T vector and transcribed from the T7 promoter. […] Human UNG1 CDNA was transcribed from the T7 promoter as previously described (Slupphaug et al., 1995, Biochemistry, 34, p128-138). The samples were run on a 12% denaturing sodium dodecyl sulfate polyacrylamide gel (SDS-PAGE). The gel was dried, autoradiographed overnight and scanned on an LKB Ultroscan XL Enhanced Laser Densitometer. Uracil-DNA glycosylase activity was measured in parallel samples of the in vitro transcription/translation assay mixture containing unlabelled amino acids (Slupphaug et al., 1995, supra). A construct containing both promoters (pGL2-ProAB) linked to the luciferase gene was prepared by insertion of a PvuII/MluI fragment (the enzymes cleave in positions 418 and 1035, respectively) from the promoter region of the UNG gene into the SmaI-MluI sites of pGL2-ProB. […]

[2] = test system: Escherichia coli recA^+ host cells (NR8051 and NR8052); experiment: Survival of E. coli host cells expressing CDG or TDG; type: cell-based; conditions: for Survival of host cells after induction by IPTG: both NR8051 and NR8052, within 5 hrs; for Survival of recA^+ host cells carrying uninduced plasmid: data not shown
[3] = test system: [^3H]dUMP-labelled DNA; experiment: Uracil inhibition in standard U-ds assay; type: biochemical; conditions: 5 mM uracil added to standard U-ds assay
Experimental: (§1) For measuring release of uracil from double-stranded (U-ds) or single-stranded (U-ss) DNA the various mutant enzymes (prepared as described in Example 1 and by analogous site-directed mutagenesis methods and identical expression and purification methods) were incubated with 200 ng ds- or ss-[^3H]dUMP-labelled DNA (500 mCi/mmol, 2 μM final concentration) in 20 μl separate reactions for 10 min under standard conditions as described in Example 1. For measuring release of [^3H]cytosine or [^3H]thymine, assays were performed as described in Example 1 using an incubation time of 10 min. Uracil inhibition was analysed by adding 5 mM uracil (final concentration) to a standard U-ds assay. 0 activity indicates activity below detection limit (10 pmol per mg protein per min) with 100 ng enzyme and 200 ng DNA substrate at standard conditions.

[4] = test system: [^3H]cytosine-labelled DNA; experiment: Kinetic parameters on cytosine substrate; type: biochemical; conditions: for Kcat: calculated from Vmax assuming Mr=25000
Experimental: (§2) To test enzymatic substrate specificities, 250 ng purified human “wild type” UDG (UNGΔ84), UNGΔ84Tyr147Ala or UNGΔ84Asn204Asp, were mixed with 200 ng ds- or ss-[^3H]cytosine-labelled DNA (150 mCi/mmol), or ds- or ss-[^3H]thymine-labelled DNA (100 mCi/mmol) in 10 mM NaCl, 20 mM Tris-HCl (pH 7.5), 1 mM EDTA, 1 mM dithiothreitol and 0.5 mg/ml bovine serum albumin (final concentrations) in 20 μl separate reactions. The final concentrations of the [^3H]cytosine-DNA (C) and [^3H]thymine-DNA (T) substrates were 6.5 μM and 10 μM, respectively. Release of radioactivity as a function of time was measured at 37° C. These conditions are later referred to as standard conditions. Substrate synthesis and processing of samples for scintillation counting were as described in Krokan and Wittwer (1981) Nucl. Acids Res., 9: 2599-2613. Single-stranded substrate was generated by boiling double-stranded substrate for 10 min, followed by rapid cooling on ice.
(§3) The kinetic parameters were determined using six different substrate concentrations to obtain the Km and Vmax values. Duplicate samples were incubated for 20 min using standard assay buffer conditions and substrates as specified. Km and Vmax were calculated using the computer program Enzpack, version 3.0 after the method of Wilkinson (1961) Biochem. J., 80: 324-332.

[5] = test system: [^3H]dUMP-labelled DNA; experiment: Release of uracil from ds or ss [3H]dUMP-labelled DNA; type: biochemical; conditions: for U-ds, pmol excised per min per mg protein: double-stranded uracil DNA, 0 = below detection limit (10 pmol per mg protein per min); for U-ds, pmol excised per min per mg protein / U-ss, pmol excised per min per mg protein: 2 μM, 10 min, 37° C.; for U-ss, pmol excised per min per mg protein: single-stranded uracil DNA, 0 = below detection limit
Experimental: as §2, §1

[6] = test system: [^3H]cytosine-labelled DNA; experiment: Release of [3H]cytosine from ds or ss labelled DNA; type: biochemical; conditions: for C-ds, pmol excised per min per mg protein: double-stranded cytosine DNA; for C-ds, pmol excised per min per mg protein / C-ss, pmol excised per min per mg protein: 6.5 μM, 10 min, 0 = below detection limit; for C-ss, pmol excised per min per mg protein: single-stranded cytosine DNA
Experimental: as §2, §1

[7] = test system: Escherichia coli DH5α (recA^−); experiment: Cytotoxicity in recA- background; type: cell-based; conditions: E. coli DH5α, even without induction; data not shown
[8] = test system: E. coli ung^+ strain (NR8051); experiment: Frequency of rifampicin resistant mutations, ung+ strain; type: cell-based
Experimental: An overnight culture of E. coli strains NR8051 and NR8052 (both recA^+, provided by Tomas Kunkel of National Institute of Environmental Health, USA) containing plasmids pTrc99A, pTUNGΔ84, UNGΔ84Tyr147Ala and UNGΔ84Asn204Asp were prepared as described in Example 1 and grown in LB-medium with ampicillin (100 μg/ml) at 30° C. The culture was then diluted 1:20 in fresh medium and cultured for 5 hours at 37° C. Induced culture contained 1 mM IPTG in the LB-medium. To determine the number of rifampicin resistant bacteria, 100 μl of the culture were mixed with 3 ml top agarose and poured on LB plates containing 100 μg/ml rifampicin and incubated overnight at 37° C. Colonies were counted and the number of rifampicin resistant colonies per 10^8 viable cells was calculated.

[9] = test system: [^3H]dUMP-labelled DNA; experiment: Kinetic parameters on uracil substrate; type: biochemical; conditions: for Kcat: calculated from Vmax assuming Mr=25000
Experimental: The final concentrations of the [^3H]cytosine-DNA (C) and [^3H]thymine-DNA (T) substrates were 6.5 μM and 10 μM, respectively. Release of radioactivity as a function of time was measured at 37° C. These conditions are later referred to as standard conditions. Substrate synthesis and processing of samples for scintillation counting were as described in Krokan and Wittwer (1981) Nucl. Acids Res., 9: 2599-2613. Single-stranded substrate was generated by boiling double-stranded substrate for 10 min, followed by rapid cooling on ice.
as §3

[10] = test system: [^3H]thymine-labelled DNA; experiment: Release of [3H]thymine from ds or ss labelled DNA; type: biochemical; conditions: for T-ds, pmol excised per min per mg protein: double-stranded thymine DNA; for T-ds, pmol excised per min per mg protein / T-ss, pmol excised per min per mg protein: 10 μM, 10 min, 0 = below detection limit; for T-ss, pmol excised per min per mg protein: single-stranded thymine DNA
Experimental: as §2, §1

[11] = test system: [^3H]thymine-labelled DNA; experiment: Kinetic parameters on thymine substrate; type: biochemical; conditions: for Kcat: calculated from Vmax assuming Mr=25000
Experimental: as §2, §3

mouse UNG2: mouse homolog of human UNG2 was tested, and the “dpm (^3H-uracil released)” value ([1]; after subtraction of background of 123 dpm) was 856 dpm and the “Activity (dpm/area), relative specific activity” value ([1]; translation in rabbit reticulocyte lysates) was 16784 dpm/area.

B1: Asn204Asp: human UDG mutant, codon 204 Asn changed to Asp; cytosine-DNA glycosylase (CDG) (protein)
chain: MGVFCLGPWGLGRKLRTPGKGPLQLLSRLCGDHLQAIPAKKAPAGQEEPGTPPSSPLSAEQLDRIQRNKAAALLRLAARNVPVGFGESWKKHLSGEFGKPYFIKLMGFVAEERKHYTVYPPPHQVFTWTQMCDIKDVKVVILGQDPYHGPNQAHGLCFSVQRPVPPPPSLENIYKELSTDIEDFVHPGHGDLSGWAKQGVLLLDAVLTVRAHQANSHKERGWEQFTDAVVSWLNQNSNGLVFLLWGSYAQKKGSAIDRKRHHVLQTAHPSPLSVYRGFFGCRHFSKTNELLQKSGKKPIDWKEL
With B1 the “Survival of host cells after induction by IPTG” value [2] was “less than 50%”, the “Survival of recA^+ host cells carrying uninduced plasmid” value [2] was “equal to that of the parental cell carrying plasmid pTrc99A” and the “Inhibition 5 mM Uracil” value [3] was 0%. The Km ([4]; C-ds substrate) was 35 µM, the Kcat ([4]; C-ds substrate) was 0.002 s⁻¹ and the Km ([4]; C-ss substrate) was 5.3 µM. For the same molecule, the Kcat ([4]; C-ss substrate) was 0.0065 s⁻¹, the “U-ds, pmol excised per min per mg protein” value (from here on “U-ds, pmol excised per min”) [5] was 1.7 × 10^4 pmol excised per min per mg protein and the “U-ss, pmol excised per min per mg protein” value (“U-ss, pmol excised per min” for short) [5] was 1.6 × 10^5 pmol excised per min per mg protein. For the same molecule, the “UDG activity remaining compared with wild type” value ([5]; uracil release, ds and ss) was 0.04-0.16%, the “C-ds, pmol excised per min per mg protein” value (“C-ds, pmol excised per min” for short) [6] was 3.0 × 10^2 pmol excised per min per mg protein and the “Preference for single stranded substrate” value ([6]; ss versus ds substrate) was 10 fold. For the same molecule, the “Cytotoxicity in recA^− background” value [7] was “highly cytotoxic”, the “Factor of increase of mutation frequency compared to host cells carrying parental plasmid pTrc99A” value (“Factor of increase of mutation frequency” for short) ([8]; E. coli ung^+ cells, uninduced) was 8.6 and the “Factor of increase of mutation frequency” value ([8]; induced ung^+ cells) was “approximately 8.9”. It also gave a Km ([9]; U-ds substrate) of 2.4 µM, a Kcat ([9]; U-ds substrate) of 0.02 s⁻¹ and a Km ([9]; U-ss substrate) of 2 µM. The Kcat ([9]; U-ss substrate) was 0.25 s⁻¹, the “T-ds, pmol excised per min per mg protein” value (“T-ds, pmol excised per min” for short) [10] was 0 pmol excised per min per mg protein and the “T-ss, pmol excised per min per mg protein” value (“T-ss, pmol excised per min” for short) [10] was 0 pmol excised per min per mg protein.

B2: Tyr147Ala (protein)
chain: B1 chain with Y147A, D204N
For B2, the “Survival of host cells after induction by IPTG” value [2] was < 10%, the “Survival of recA^+ host cells carrying uninduced plasmid” value [2] was “equal to that of the parental cell carrying plasmid pTrc99A” and the “Inhibition 5 mM Uracil” value [3] was 0%. The Km ([11]; T-ds substrate) was 6 µM, the Kcat ([11]; T-ds substrate) was 0.001 s⁻¹ and the Km ([11]; T-ss substrate) was 1.4 µM. For the same molecule, the Kcat ([11]; T-ss substrate) was 0.00033 s⁻¹, the “U-ds, pmol excised per min” value [5] was 2.2 × 10^4 pmol excised per min per mg protein and the “U-ss, pmol excised per min” value [5] was 2.2 × 10^4 pmol excised per min per mg protein. For the same molecule, the “C-ds, pmol excised per min” value [6] was 0 pmol excised per min per mg protein, the “C-ss, pmol excised per min per mg protein” value (“C-ss, pmol excised per min” for short) [6] was 0 pmol excised per min per mg protein and the “Cytotoxicity in recA^− background” value [7] was “highly cytotoxic”. For the same molecule, the “Factor of increase of mutation frequency” value ([8]; E. coli ung^+ cells, uninduced) was 39, the “Mutation frequency in vivo relative to CDG activity” value ([8]; Escherichia coli) was 10 fold and the “Factor of increase of mutation frequency” value ([8]; induced ung^+ cells) was ~94.4. For the same molecule, the Km ([9]; U-ds substrate) was 3.5 µM, the Kcat ([9]; U-ds substrate) was 0.0167 s⁻¹ and the Km ([9]; U-ss substrate) was 0.3 µM. For the same molecule, the Kcat ([9]; U-ss substrate) was 0.01 s⁻¹, the “T-ds, pmol excised per min” value [10] was 1.3 × 10^3 pmol excised per min per mg protein and the “T-ss, pmol excised per min” value [10] was 7.5 × 10^2 pmol excised per min per mg protein. For the same molecule, the “Preference for single stranded substrate” value ([10]; ss versus ds substrate) was “decreased preference”.

B3: Asn204Gln: human UDG (UNGΔ84) mutant with Asn204 replaced by Gln (protein)
chain: B1 chain with D204Q
B3 was tested, and the “Inhibition 5 mM Uracil” value [3] was 70%, the “U-ds, pmol excised per min” value [5] was 1.5 × 10^6 pmol excised per min per mg protein and the “U-ss, pmol excised per min” value [5] was 2.2 × 10^6 pmol excised per min per mg protein. The “C-ds, pmol excised per min” value [6] was 0 pmol excised per min per mg protein, the “C-ss, pmol excised per min” value [6] was 0 pmol excised per min per mg protein and the Km ([9]; U-ds substrate) was 0.4 µM. For the same molecule, the Kcat ([9]; U-ds substrate) was 1.1 s⁻¹, the Km ([9]; U-ss substrate) was 0.23 µM and the Kcat ([9]; U-ss substrate) was 1.48 s⁻¹. The “T-ds, pmol excised per min” value [10] was 0 pmol excised per min per mg protein and the “T-ss, pmol excised per min” value [10] was 0 pmol excised per min per mg protein.

B4: Tyr147Phe: human UDG (UNGΔ84) mutant with Tyr147 replaced by Phe (protein)
chain: B1 chain with Y147F, D204N
In the case of B4, the “Inhibition 5 mM Uracil” value [3] is reported as 50%, the “U-ds, pmol excised per min” value [5] is reported as 3.2 × 10^7 pmol excised per min per mg protein and the “U-ss, pmol excised per min” value [5] is reported as 6.3 × 10^7 pmol excised per min per mg protein. For the same molecule, the “C-ds, pmol excised per min” value [6] was 0 pmol excised per min per mg protein, the “C-ss, pmol excised per min” value [6] was 0 pmol excised per min per mg protein and the Km ([9]; U-ds substrate) was 0.16 µM. For the same molecule, the Kcat ([9]; U-ds substrate) was 20.42 s⁻¹, the Km ([9]; U-ss substrate) was 0.1 µM and the Kcat ([9]; U-ss substrate) was 39.5 s⁻¹. The “T-ds, pmol excised per min” value [10] was 0 pmol excised per min per mg protein and the “T-ss, pmol excised per min” value [10] was 0 pmol excised per min per mg protein.
